The values below come from doi:10.1101/2021.07.28.453719 (bioRxiv, 2021).

No end group written: not given here.

Assay [1] concerns the target first bromodomain (BD1) of BRD4, wild type (human, UniProt O60885). Kind of assay: ITC.
The target of assay [2] is first bromodomain (BD1) of BRD3, wild type (human, UniProt Q15059). Kind of assay: ITC.
Sequence of first bromodomain (BD1) of BRD3, wild type (Q15059 24-144): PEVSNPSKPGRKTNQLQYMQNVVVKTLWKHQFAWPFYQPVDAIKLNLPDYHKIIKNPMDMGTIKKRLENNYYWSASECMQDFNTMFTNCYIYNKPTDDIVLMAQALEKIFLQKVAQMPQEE

In assay [1], AK(Ac)GLLLK(Ac)G [diacetylated ILF3 peptide 10 (AKacGLLLKacG)] had a Kd of 167 ± 28 µM. Also, the binding result in assay [2] is “binds”.

AK(Ac)GALLK(Ac)G [ILF3 variant peptide AKacGALLKacG (aa 99-106) 15 carrying L102A] displayed a Kd in assay [1] of 60 ± 10 µM.
